This passage reports abundance fitness results from the Human Domainome abundance scans (Beltran et al. 2025).

B1: Histone H1t, residues 44 to 112; numbered along this chain, P22492 (parent)
chain: VSKLITEALSVSQERVGMSLVALKKALAAAGYDVEKNNSRIKLSLKSLVNKGILVQTRGTGASGSFKLS

± gives the uncertainty stated by the source.

In this data set the parent is B1. Put plainly: abundance fitness (aPCA) (normalised: wild type 0, dead -1); higher = more abundant; growth selection in yeast, the domain comes from the species named. As to conditions: Homo sapiens.
VSKLITEALSVSQERVGMSLVALKKALAAAGYDVEKNNSRIKLSLASLVNKGILVQTRGTGASGSFKLS [K46A]: the abundance fitness is -0.01 ± 0.067. For the variant VSKLITEALSVSQERVGMSLVALKKALAAAGYDVEKNNSRIKLSLHSLVNKGILVQTRGTGASGSFKLS [K46H], the abundance fitness was -0.35 ± 0.12. On to VSKLITEALSVSQERVGMSLVALKKALAAAGYDVEKNNSRIKLSLSSLVNKGILVQTRGTGASGSFKLS [K46S], for which the abundance fitness was -0.332 ± 0.041.

For VSKLITEALSVSQERVGMSLVALKKALAAAGYDVEKNNSRIKLSLWSLVNKGILVQTRGTGASGSFKLS [K46W], the abundance fitness is -0.418 ± 0.094. In the case of VSKLITEALSVSQERVGMSLVALKKALAAAGYDVEKNNSRIKLSLGSLVNKGILVQTRGTGASGSFKLS [K46G] it was -0.875 ± 0.16; in that of VSKLITEALSVSQERVGMSLVALKKALAAAGYDVEKNNSRIKLSLQSLVNKGILVQTRGTGASGSFKLS [K46Q], -0.226 ± 0.066.

For the variant VSKLITEALSVSQERVGMSLVALKKALAAAGYDVEKNNSRIKLSLNSLVNKGILVQTRGTGASGSFKLS [K46N], the abundance fitness was -0.489 ± 0.11.

In the case of VSKLITEALSVSQERVGMSLVALKKALAAAGYDVEKNNSRIKLSLVSLVNKGILVQTRGTGASGSFKLS [K46V], the abundance fitness was -0.197 ± 0.065. In the case of VSKLITEALSVSQERVGMSLVALKKALAAAGYDVEKNNSRIKLSLTSLVNKGILVQTRGTGASGSFKLS [K46T] it was -0.209 ± 0.079; in that of VSKLITEALSVSQERVGMSLVALKKALAAAGYDVEKNNSRIKLSLESLVNKGILVQTRGTGASGSFKLS [K46E], -0.053 ± 0.14; in that of VSKLITEALSVSQERVGMSLVALKKALAAAGYDVEKNNSRIKLSLMSLVNKGILVQTRGTGASGSFKLS [K46M], -0.23 ± 0.038. Take VSKLITEALSVSQERVGMSLVALKKALAAAGYDVEKNNSRIKLSLRSLVNKGILVQTRGTGASGSFKLS [K46R]: the abundance fitness is -0.053 ± 0.066. In the case of VSKLITEALSVSQERVGMSLVALKKALAAAGYDVEKNNSRIKLSLISLVNKGILVQTRGTGASGSFKLS [K46I], the abundance fitness is -0.129 ± 0.056. Next, VSKLITEALSVSQERVGMSLVALKKALAAAGYDVEKNNSRIKLSLLSLVNKGILVQTRGTGASGSFKLS [K46L]: -0.178 ± 0.029. Take VSKLITEALSVSQERVGMSLVALKKALAAAGYDVEKNNSRIKLSLYSLVNKGILVQTRGTGASGSFKLS [K46Y]: the abundance fitness was -0.895 ± 0.14.

Consider VSKLITEALSVSQERVGMSLVALKKALAAAGYDVEKNNSRIKLSLDSLVNKGILVQTRGTGASGSFKLS [K46D], for which the abundance fitness is -0.329 ± 0.28. On to VSKLITEALSVSQERVGMSLVALKKALAAAGYDVEKNNSRIKLSLPSLVNKGILVQTRGTGASGSFKLS [K46P], for which the abundance fitness was -0.841 ± 0.07. Next, VSKLITEALSVSQERVGMSLVALKKALAAAGYDVEKNNSRIKLSLCSLVNKGILVQTRGTGASGSFKLS [K46C]: -0.628 ± 0.15; VSKLITEALSVSQERVGMSLVALKKALAAAGYDVEKNNSRIKLSLKSCVNKGILVQTRGTGASGSFKLS [L48C]: -0.589 ± 0.13. Regarding VSKLITEALSVSQERVGMSLVALKKALAAAGYDVEKNNSRIKLSLKSAVNKGILVQTRGTGASGSFKLS [L48A], the abundance fitness is -0.755 ± 0.084. In the case of VSKLITEALSVSQERVGMSLVALKKALAAAGYDVEKNNSRIKLSLKSFVNKGILVQTRGTGASGSFKLS [L48F] it was -0.404 ± 0.039; in that of VSKLITEALSVSQERVGMSLVALKKALAAAGYDVEKNNSRIKLSLKSIVNKGILVQTRGTGASGSFKLS [L48I], -0.564 ± 0.059; in that of VSKLITEALSVSQERVGMSLVALKKALAAAGYDVEKNNSRIKLSLKSEVNKGILVQTRGTGASGSFKLS [L48E], -0.784 ± 0.18. For VSKLITEALSVSQERVGMSLVALKKALAAAGYDVEKNNSRIKLSLKSQVNKGILVQTRGTGASGSFKLS [L48Q], the abundance fitness is -0.643 ± 0.075.

Regarding VSKLITEALSVSQERVGMSLVALKKALAAAGYDVEKNNSRIKLSLKSNVNKGILVQTRGTGASGSFKLS [L48N], the abundance fitness is -0.775 ± 0.094. Take VSKLITEALSVSQERVGMSLVALKKALAAAGYDVEKNNSRIKLSLKSSVNKGILVQTRGTGASGSFKLS [L48S]: the abundance fitness is -0.801 ± 0.068.

For VSKLITEALSVSQERVGMSLVALKKALAAAGYDVEKNNSRIKLSLKSRVNKGILVQTRGTGASGSFKLS [L48R], the abundance fitness was -0.864 ± 0.1.

For VSKLITEALSVSQERVGMSLVALKKALAAAGYDVEKNNSRIKLSLKSKVNKGILVQTRGTGASGSFKLS [L48K], the abundance fitness is -0.939 ± 0.079. On to VSKLITEALSVSQERVGMSLVALKKALAAAGYDVEKNNSRIKLSLKSHVNKGILVQTRGTGASGSFKLS [L48H], for which the abundance fitness is -0.979 ± 0.097. VSKLITEALSVSQERVGMSLVALKKALAAAGYDVEKNNSRIKLSLKSDVNKGILVQTRGTGASGSFKLS [L48D]: the abundance fitness is -0.405 ± 0.14. Turning to VSKLITEALSVSQERVGMSLVALKKALAAAGYDVEKNNSRIKLSLKSGVNKGILVQTRGTGASGSFKLS [L48G], the abundance fitness was -0.894 ± 0.12.

For VSKLITEALSVSQERVGMSLVALKKALAAAGYDVEKNNSRIKLSLKSPVNKGILVQTRGTGASGSFKLS [L48P], the abundance fitness was -0.873 ± 0.074.

VSKLITEALSVSQERVGMSLVALKKALAAAGYDVEKNNSRIKLSNKSLVNKGILVQTRGTGASGSFKLS [L45N]: the abundance fitness was -0.897 ± 0.42.

With VSKLITEALSVSQERVGMSLVALKKALAAAGYDVEKNNSRIKLSMKSLVNKGILVQTRGTGASGSFKLS [L45M], the abundance fitness is -0.386 ± 0.089.

Consider VSKLITEALSVSQERVGMSLVALKKALAAAGYDVEKNNSRIKLSTKSLVNKGILVQTRGTGASGSFKLS [L45T], for which the abundance fitness is -0.63 ± 0.062. For the variant VSKLITEALSVSQERVGMSLVALKKALAAAGYDVEKNNSRIKLSGKSLVNKGILVQTRGTGASGSFKLS [L45G], the abundance fitness is -0.574 ± 0.15.

Regarding VSKLITEALSVSQERVGMSLVALKKALAAAGYDVEKNNSRIKLSEKSLVNKGILVQTRGTGASGSFKLS [L45E], the abundance fitness was -0.978 ± 0.46. On to VSKLITEALSVSQERVGMSLVALKKALAAAGYDVEKNNSRIKLSPKSLVNKGILVQTRGTGASGSFKLS [L45P], for which the abundance fitness was -0.46 ± 0.049. In the case of VSKLITEALSVSQERVGMSLVALKKALAAAGYDVEKNNSRIKLSWKSLVNKGILVQTRGTGASGSFKLS [L45W] it was -0.125 ± 0.092.
